From patent US20040002450A1, “Y17 - isolated molecules comprising epitopes containing sulfated moieties, antibodies to such epitopes, and uses thereof” (priority 2000, published 2004)

Tests used:
[1] = system: MOLT-4 cells; assay: T-ALL (MOLT4) model in SCID mice; type: in vivo
Experimental: The in vivo mouse model for T-ALL uses SCID mice (Jackson Laboratories) injected with MOLT4 cells derived from a T cell leukemia patient.
In one experiment, SCID mice were pretreated with 100 mg/kg Cytoxan (CTX, Cyclophosphamid for injection, Mead Johnson). Eleven days after CTX injection, MOLT-4 cells were injected intravenously into the tail vein. Control mice were injected with PBS alone. One week post-MOLT-4 injection mice were injected with CONY1-Doxorubicin, which is a conjugate between scFv CON Y1 polypeptide, having KAK amino acid residues at its carboxy end and doxorubicin via a short organic linker; CONY1, which is a scFv antibody fragment derived from Y1 scFv in which the DNA sequences encoding the myc tag of Y1 were deleted and replaced with a DNA sequence encoding the amino acids lysine, alanine, lysine (KAK); or free Doxorubicin. The mice were injected three times per week for three weeks. […] (Table M).
Mice started to die 32 days post cell inoculation, and the surviving mice were sacrificed at this time. Bone marrow cells were analyzed by flow cytometry using anti-human CD44-FITC and Y1-Biotin/SAV-PE. Blood samples from several animals were monitored for platelet and white blood cell count. Livers were weighted and examined for appearance. Other organs were also examined for tumor appearance.
In a second experiment, SCID mice were i.v. injected with 2×10^7 MOLT-4 cells/mouse, 5 days post treatment with cyclophosphamide. Anti-cancer agents or PBS (negative control animals) were injected i.v. three times/week from day 5 post MOLT-4 cells injection and onward. On day 35, blood was drawn from the animals, the animals were sacrificed, and their livers were excised and weighed. In the untreated, PBS-treated MOLT-4 cell-bearing animals, the liver presented with a very massive tumor growth, and its size was increased 2-3-fold relative to PBS control uninfected animals. In this experiment, there were five treatment groups:
In parallel, portions of liver tissue were taken for histology and cell harvesting for FACS analysis. The survival rate of another group of treated animals was recorded relative to that of control untreated mice.
In a third experiment, using the identical SCID/MOLT-4 protocol, there were 6 groups: […]

[2] = mouse, in vivo
Experimental: The radioactive protein was then admixed with unlabeled CONY-1 to yield a solution of 75 μg/ml CONY-1 containing 2.5×10^6 CPM/ml in saline.
Male Balb-C mice were pretreated by intraperitoneal injection of 0.5 ml/mouse of 0.9% NaI. After 2 hours, the mice were injected intravenously with 0.2 ml of the labeled CONY-1 solution, resulting in a ^125I-CONY-1 dose of 15 μg (5×10^5 CPM) per mouse.
At various times after injection, blood was collected over EDTA, mice were sacrificed, and tissues were excised. Samples and organs were taken at 5, 15, and 30 minutes and at 1, 2, 4, 8, and 24 hours after injection. Two to four mice were used per time point. Plasma was separated and either counted for gamma radioactivity or subjected to precipitation with trichloroacetic acid (TCA). After centrifugation, TCA precipitates were subjected to gamma radioactivity counting. Liver, lung, kidney, spleen, and bone marrow samples were weighed and counted for gamma radioactivity. Plasma TCA precipitated radioactivity was plotted against time, and a two-compartment kinetics model was fitted. Organ/tissue total and specific radioactivity values were calculated.

[3] = target: T1, GPIb (glycocalicin) derived from platelets (Homo sapiens, UniProt P07359); assay: ELISA to GC (glycocalicin), monomer versus dimer; type: binding
T1 construct: glycocalicin (soluble, extracellular fragment of GPIbα); from tissue; host or cells: human platelets
Experimental: An ELISA assay was performed to ascertain the differences in binding between the monomer (the Y1 scFv-also known as Y1-kak) and the dimer Y1-cys-kak (the cysteine dimer) for antigen GPIb (glycocalicin) derived from platelets. A polyclonal anti single chain antibody and/or a novel polyclonal anti-VL (derived from rabbits) and anti-rabbit HRP, were used to detect the binding to GPIb. […] For instance, to reach 0.8 OD units 12.8 μg/ml of monomer was used compared to only 0.1 μg/ml of dimer.
100 ml of purified glycocalicin was incubated in a 96 flat well maxisorp plates, overnight at 4 degrees celsius. The plate was washed with PBST (PBS+0.05% tween) 3 times, then […] of PBST-milk (PBST+2% Non fat milk), for 1 hr at room temperature. The plate was washed with PBST, and the monomer or dimer (100 ml) was added in PBST-milk at different concentrations for 1 hr at room temp. Then the plate was washed and anti-VL polyclonal (derived from immunized rabbits with VL derived from Y1) (1:100 diluted in PBST-milk) was added for an hour. The plate was washed and anti-rabbit HRP was added for an additional hour. The plate was washed 5 times and 100 μl TMB substrate was added for approximately 15 minutes then 100 μl of 0.5H2SO4 was added to stop the reaction. The optical density of the plate was measured at 450 nm in an ELISA reader.

[4] = system: KG-1 cells; assay: AML KG-1 model in SCID/NOD mice; type: in vivo
Experimental: The in vivo mouse model for human AML uses SCID/NOD mice (Jackson Laboratories) inoculated with KG-1 cells derived from a human AML cell line.
In a first experiment, NOD/SCID mice were pretreated with 100 mg/kg CYTOXAN®. Four days post CYTOXANT injection, KG-1 cells were injected intravenously into the tail vein of six groups of mice. (Table N, Groups 2 and 5-9). One group of mice (Table N, Group 1) was injected with PBS alone (control).
Beginning 19 days post KG-1 injection mice were treated with: CONY1, Doxorubicin, CONY1-Doxorubicin conjugate, or Mylotarg®. (Mylotarg® is a monoclonal antibody (anti CD33) conjugated chemically to calcheamicin recently approved by the FDA for treatment of AML patients age 60 and over in a first relapse.) Mice were treated once or three times per week for three weeks. […]
Mice were sacrificed from 60 to 65 days post cell injection. Bone marrow and blood samples were analyzed by flow cytometry using mouse anti human CD34-FITC (IQP 144F) (or anti CD44-FITC (MCA89F, Serotec)) and Y1-Biotin/SAV-PE. […]
An additional experiment was performed in which SCID-NOD mice were i.v. injected with 3×10^4 MOLT-4 cells/mouse 5 days post treatment with cyclophosphamide. […] Bone marrow was extracted and analyzed by FACS analysis using a commercially available antiCD44 antibody for the detection of MOLT-4 cells in the mice bone marrow cell population.

[5] = system: KG-1 cells; assay: Radioreceptor binding assay with KG-1 cells; design: species or system human; settings: 2 ng/tube 125I-Y1-IgG tracer
Experimental: The assay system involved the use of radioactive ligands that were prepared by iodination with ^125I using chloramine T on the Y1-IgG construct or the Bolton-Hunter (CONY1) reagent. The assay tubes contained 5×10^6 KG-1 cells per 0.2 ml and a labeled tracer with varying amounts of unlabeled competitor, in PBS+0.1% BSA, pH 7.4. After one hour incubation with agitation at 4° C., the cells were thoroughly washed with cold buffer and taken for radioactivity counting.
For the radio receptor binding assay (RRA), 2 ng/tube of ^125I-Y1-IgG was used, and competition was performed with each of the three molecules. […] A rough estimate of the affinity of the Y1-IgG in this experiment is 2×10^−8 M. The corresponding affinity of the dimer is, therefore, 4×10^−8 M.
In a second RRA using labeled CONYL, a 100 ng/tube of ^125I-Y1-IgG was used, and competition was performed with each of the three molecules. […] A rough estimate of the affinity of CONY 1 in this experiment is 10^−6M. The corresponding affinity of the dimer is, therefore, 5×10^−8 M.

B1: CONY1: scFv derived from Y1 scFv in which the myc tag is replaced by lysine, alanine, lysine (KAK); SEQ ID NO: 204 (protein, listed as Homo sapiens)
scFv: MKYLLPTAAAGLLLLAAQPAMAEVQLVESGGGVVRPGGSLRLSCAASGFTFDDYGMSWVRQAPGKGLEWVSGINWNGGSTGYADSVKGRFTISRDNAKNSLYLQMNSLRAEDTAVYYCARMRAPVIWGQGTLVTVSRGGGGSGGGGSGGGGSSELTQDPAVSVALGQTVRITCQGDSLRSYYASWYQQKPGQAPVLVIYGKNNRPSGIPDRFSGSSSGNTASLTITGAQAEDEADYYCNSRDSSGNHVVFGGGTKLTVLGAAAKAK
With B1 the “liver weight versus free Doxorubicin-treated or untreated MOLT-4 mice” value ([1]; first experiment, three times per week for three weeks, sacrifice 32 days post inoculation) was “weighted significantly less”, the survival ([1]; mice from three groups with continued treatment) was “prolonged” and the “liver weights / tumor growth in the liver” value ([1]; second experiment, day 35, i.v. three times/week, scFv or conjugate 75 μg/mouse, Doxorubicin 0.1 mg/kg) was “markedly inhibited tumor growth in the liver”. For the same molecule, the “tumor growth (based on liver weights)” value ([1]; third experiment, scFv 75 μg/mouse, IgG 5 μg/mouse) was “inhibited tumor growth”, the “distribution between plasma and erythrocytes (in words)” value [2] was “did not adhere to erythrocytes” and the “half-life of blood clearance, first compartment” value ([2]; iv) was 0.583 h. The “half-life of blood clearance, second compartment” value ([2]; iv) was 3.17 h, the “concentration used to reach 0.8 OD units” value [3] was 12.8 µg/mL and the “percentage of KG-1 cells in bone marrow (in words)” value ([4]; KG-1 cells incubated in vitro with scFv before injection (groups 3 and 4)) was “significantly lower percentage”. For the same molecule, the “development of the malignancy / prevalence of bone marrow cancer (in words)” value ([4]; additional experiment, day 60, CONY1 scFv 75 μg/mouse three times/week, Mylotarg 7 μg/mouse once a week) was “no effect”.

B2: S-S Y1 dimer: Y1 sulfide bridge dimer compared with CONY1 and Y1-IgG in the radioreceptor assay (protein)
scFv: MEVQLVESGGGVVRPGGSLRLSCAASGFTFDDYGMSWVRQAPGKGLEWVSGINWNGGSTGYADSVKGRFTISRDNAKNSLYLQMNSLRAEDTAVYYCARMRAPVIWGQGTLVTVSRGGGGSGGGGSGGGGSSELTQDPAVSVALGQTVRITCQGDSLRSYYASWYQQKPGQAPVLVIYGKNNRPSGIPDRFSGSSSGNTASLTITGAQAEDEADYYCNSRDSSGNHVVFGGGTKLTVLGGGGCKAK
For B2, the “affinity relative to the full Y1 antibody” value [5] was “twofold lower”.
